One molecule from patent US20180125924A1 (NORTHWESTERN UNIVERSITY, published 2018) can be followed below.

For the assay, the target named is recombinant human BMP-2 obtained from Medtronic Sofamor Danek (human, UniProt P12643 283-396). Put plainly: cell-based or functional assay.

Groups on a side chain read outwards from the residue. No end group written: not given here. *: point of attachment. triazole = 1,2,3-triazole formed by click reaction linking the lysine-side-chain spacer to the azidoethyl glycoside; Palmitoyl = CCCCCCCCCCCCCCCC(=O)*

recombinant human BMP-2 obtained from Medtronic Sofamor Danek, sequence (P12643 283-396 limits assumed): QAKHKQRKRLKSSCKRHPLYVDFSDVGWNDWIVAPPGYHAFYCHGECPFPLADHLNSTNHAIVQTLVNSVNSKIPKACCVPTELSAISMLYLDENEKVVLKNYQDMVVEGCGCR

B1: 3,4,6S-GlcNAc PA (PA 1) nanofibers (peptide)
peptide: Palmitoyl-VVAAEEK([COCH2(O(CH2)2)2NHCO(CH2)2-triazole-ethyl-2‑acetamido‑3,4,6‑tri‑O‑sulfo‑2‑deoxy‑beta‑D‑glycopyranoside])
modifications: also: self-assembled nanofibers
Consider B1, for which the “ALP activity in C2C12 cells treated with BMP-2 (75 ng/mL) and PA nanofibers (25 uM)” value is 9 fold.
